One molecule from US20180086841A1 (Merck Sharp & Dohme, published 2018) can be followed below.

Common to all, as to assay: flow cytometry on CHO-K1 transfectants;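 note: Anti-hCD27 antibodies tested on transiently transfected CHO-K1 cells bearing hCD27 alanine mutants, 30 min at 4 °C primary incubation, FITC readout excluding debris, dead cells and doublets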
Background: A flow cytometer gives signals particle by particle.

For one assay, the target named is T1, F28A.
T1 construct: also called hCD27 F28A
T1 receptor chain: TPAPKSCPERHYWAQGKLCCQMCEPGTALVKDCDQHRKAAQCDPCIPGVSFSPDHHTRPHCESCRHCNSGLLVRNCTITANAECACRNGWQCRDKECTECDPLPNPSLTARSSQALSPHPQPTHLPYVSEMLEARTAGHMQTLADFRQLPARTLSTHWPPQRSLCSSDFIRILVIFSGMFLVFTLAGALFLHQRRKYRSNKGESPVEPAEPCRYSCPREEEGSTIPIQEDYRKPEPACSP

The target in another assay is T2, S63A.
T2 construct: also called hCD27 S63A
T2 receptor chain: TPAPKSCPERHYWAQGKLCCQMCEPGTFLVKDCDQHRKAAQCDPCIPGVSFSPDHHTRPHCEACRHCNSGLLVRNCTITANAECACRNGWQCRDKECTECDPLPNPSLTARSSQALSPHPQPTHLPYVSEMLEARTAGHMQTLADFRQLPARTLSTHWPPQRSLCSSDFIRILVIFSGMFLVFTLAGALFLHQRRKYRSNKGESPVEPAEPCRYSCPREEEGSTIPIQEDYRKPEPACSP

In another assay the target is T3, G89A.
T3 construct: also called hCD27 G89A
T3 receptor chain: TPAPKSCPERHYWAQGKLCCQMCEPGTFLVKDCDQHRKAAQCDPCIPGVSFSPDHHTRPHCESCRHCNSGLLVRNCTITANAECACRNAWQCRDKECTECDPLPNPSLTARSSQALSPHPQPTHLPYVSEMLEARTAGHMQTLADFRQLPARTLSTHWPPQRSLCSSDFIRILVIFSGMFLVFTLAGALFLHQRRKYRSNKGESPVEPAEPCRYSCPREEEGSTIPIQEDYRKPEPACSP

The target in another assay is T4, W13A.
T4 construct: also called hCD27 W13A
T4 receptor chain: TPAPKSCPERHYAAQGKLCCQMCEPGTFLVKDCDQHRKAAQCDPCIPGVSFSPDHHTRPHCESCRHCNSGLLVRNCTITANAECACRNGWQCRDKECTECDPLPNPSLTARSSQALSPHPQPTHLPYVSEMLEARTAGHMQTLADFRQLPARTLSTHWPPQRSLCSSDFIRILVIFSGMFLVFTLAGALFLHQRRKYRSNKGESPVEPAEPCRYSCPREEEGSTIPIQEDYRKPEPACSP

Procedure for F28A: (§1) The hCD27 variants that were tested are listed. Amino acids correspond to the UniProt P26842-1 sequence. Amino acids 1-20 constitute the signal peptide. Binding is expressed as the geometric mean of the FITC signal, relative to antibody binding to hCD27, which was set at 100%.
(§2) The ability of several anti-hCD27 antibodies to bind to a series of hCD27 alanine mutants was determined using CHO-K1 cells, transiently transfected pCI-neo empty vector, pCI-neo.hCD27 and several pCI-neo.CD27Ala mutant constructs.
(§3) Detached cells were transferred to 96 wells round-bottomed well plates at approximately 1.2×10⁵ cells/well. After spinning down the cells, discarding the supernatants and re-suspending the cells in the residual volume, the primary antibodies were added and incubated for 30 minutes at 4° C. Cells were washed three times with DPBS/BSA 1%, followed by centrifugation, discarding of the supernatants and re-suspension in the residual volume. […] After washing once, antibody binding was detected using the HTS plate reader (FACS Canto II) and FlowJo software for data analysis. Debris, dead cells and doublets were excluded from the analysis. Binding was expressed as the geometric mean of the FITC signal, relative to antibody binding to hCD27, which was set at 100%.
Procedure for G89A: as §1, §2, §3
Procedure for S63A: as §1, §2, §3
Procedure for W13A: as §1, §2, §3

B1: hCD27.15-6B (antibody, human IgG4 S228P, kappa, V domains shown)
VH: QVQLVQSGAEVKKPGASVKVSCKASGFIIKATYMHWVRQAPGQRLEWMGRIDPANGETKYDPKFQVRVTITADTSASTAYMELSSLRSEDTAVYYCARYAWYFDVWGQGTLVTVSS
VL: DIQMTQSPSSLSASVGDRVTITCRASENIYSFLAWYQQKPGKAPKLLIYHAKTLAEGVTSRFSGSGSGTDFTLTISSLQPEDSATYYCQHYYGSPLTFGQGTRLEIKR
notes: also called hCD27.15 (humanized 6B); humanized hCD27.15 (human IgG4, Clone 6B)
B1: the “binding, WT hCD27 = 100 (GM FITC)” value stood at 59.4% with F28A, 104% with S63A, 97.4% with G89A and 71.4% in the assay with W13A.
